# Test results reported in patent publication US20120258482.
# B1: Flag-tagged C6orf211 protein fusion (Flag-Arm1) (protein)
# chain: MAVVPASLSGQDVGSFAYLTIKDRIPQILTKVIDTLHRHKSEFFEKHGEEGVEAEKKAISLLSKLRNELQTDKPFIPLVEKFVDTDIWNQYLEYQQSLLNESDGKSRWFYSPWLLVECYMYRRIHEAIIQSPPIDYFDVFKESKEQNFYGSQESIIALCTHLQQLIRTIEDLDENQLKDEFFKLLQISLWGNKCDLSLSGGESSSQNTNVLNSLEDLKPFILLNDMEHLWSLLSNCKKTREKASATRVYIVLDNSGFELVTDLILADFLLSSELATEVHFYGKTIPWFVSDTTIHDFNWLIEQVKHSNHKWMSKCGADWEEYIKMGKWVYHNHIFWTLPHEYCAMPQVAPDLYAELQKAHLILFKGDLNYRKLTGDRKWEFSVPFHQALNGFHPAPLCTIRTLKAEIQVGLQPGQGEQLLASEPSWWTTGKYGIFQYDGPL
# Target: purified recombinant 6x His-PCNA
# Sequence (chain, as listed by the source): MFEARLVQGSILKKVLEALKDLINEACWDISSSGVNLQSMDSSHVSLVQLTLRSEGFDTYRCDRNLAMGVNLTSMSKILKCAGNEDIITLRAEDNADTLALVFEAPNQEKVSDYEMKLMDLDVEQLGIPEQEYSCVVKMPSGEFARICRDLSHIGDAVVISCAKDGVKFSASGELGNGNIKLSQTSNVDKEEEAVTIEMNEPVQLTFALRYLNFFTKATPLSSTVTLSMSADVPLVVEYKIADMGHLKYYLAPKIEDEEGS
protein,measurement,value
B1,PCNA-dependent carboxyl methyltransferase activity (vapor diffusion assay),"Significant levels of PCNA-dependent carboxyl methyltransferase activity was detected in the anti-Flag Flag-Arm1 expressing extracts, and this activity was not present in the immunoprecipitates from control extracts"
